These results are taken from publication PMC12865202 (2026).

The experiment has as its target Chicken CapZ (full length α/β) (chicken, UniProt P13127 1-286; P14315 1-277). The experiment is described as follows: ITC. In general terms: ITC needs no label: the signal is the heat of the interaction.

One may read the Kd as a measure of binding affinity in units of concentration. SKREETKLTHFVRERAQGPRGRRLPAHLQAKIKRVSLDKPH [RavB^108-148 synthetic peptide] gave a dissociation constant Kd of 170 nM.
